B1: TG10 W38A: TG10 HC W38A (SEQ ID NO: 47) with TG10 LC (SEQ ID NO: 12) (antibody, V domains shown)
VH: EVQLVESGGGLVQPGGSLRLSCAVSGFPFSSYAMSWVRQAPGKGLEWVANIKEDGSEKYYVDSVKGRFTISRDNAKNSLYLQMNSLRAEDTAVYYCATDPDVGLSDSWGQGTLVTVSS
VL: EIVLTQSPGTLSLSPGDRATHSCRASQSVSRSYLAWYQQKPGQTPRLFIYGASNRATGIPDRFSGSGSGTYFTLTISRLEPEDFAVYYCQQYDSAPDTFGQGTRLEIK
modifications: Site directed mutatation of TG10 HC Variable Region; TG10 Light Chain Variable Region
B2: TG10 V110R: TG10 HC V110R (SEQ ID NO: 39) with TG10 LC (SEQ ID NO: 12) (antibody, V domains shown)
VH: B1 VH with A33W, V102R
VL: B1 VL
modifications: Site directed mutation of TG10 HC Variable Region; TG10 Light Chain Variable Region
B3: ADI-45379: Original clone from screen; HC SEQ ID NO: 1, LC SEQ ID NO: 2 (antibody, listed as Homo sapiens, V domains shown)
VH: B1 VH with V5L, A33W
VL: B1 VL with I2T, V3T, G9A
B4: 285 × TG: 4488285 HC (SEQ ID NO: 46) with TG10 LC (SEQ ID NO: 12) (antibody, V domains shown)
VH: B1 VH with V24A, P28T, A33W, E53Q, T98R, D101Y, V102M, S105I, S107Y
VL: B1 VL
modifications: Based on an antibody sequence.; TG10 Light Chain Variable Region
B5: TG10 D109K: TG10 HC D109K (SEQ ID NO: 48) with TG10 LC (SEQ ID NO: 12) (antibody, V domains shown)
VH: B1 VH with A33W, D101K
VL: B1 VL
modifications: Site directed mutatation of TG10 HC Variable Region; TG10 Light Chain Variable Region
B6: TG10 Y37A: TG10 HC Y37A (SEQ ID NO: 31) with TG10 LC (SEQ ID NO: 12) (antibody, V domains shown)
VH: B1 VH with Y32A, A33W
VL: B1 VL
modifications: Site directed mutation of TG10 HC Variable Region; TG10 Light Chain Variable Region
B7: 120 × TG: 1467120 HC (SEQ ID NO: 45) with TG10 LC (SEQ ID NO: 12) (antibody, V domains shown)
VH: B1 VH with E1Q, V24A, P28T, A33W, E53Q, T98R, D101E, V102G, S105P, S107Y
VL: B1 VL
modifications: Based on an antibody sequence.; TG10 Light Chain Variable Region
B8: TG10 LC Y55A: TG10 HC (SEQ ID NO: 3) with TG10 LC Y55A (SEQ ID NO: 40) (antibody, V domains shown)
VH: B1 VH with A33W
VL: B1 VL with Y50A
modifications: TG10 Heavy Chain Variable Region; Site directed mutation of TG10 LC Variable Region
B9: TG10 Y66A: TG10 HC Y66A (SEQ ID NO: 38) with TG10 LC (SEQ ID NO: 12) (antibody, V domains shown)
VH: B1 VH with A33W, Y59A
VL: B1 VL
modifications: Site directed mutation of TG10 HC Variable Region; TG10 Light Chain Variable Region
B10: TG10 D116A: TG10 HC D116A (SEQ ID NO: 34) with TG10 LC (SEQ ID NO: 12) (antibody, V domains shown)
VH: B1 VH with A33W, D106A
VL: B1 VL
modifications: Site directed mutation of TG10 HC Variable Region; TG10 Light Chain Variable Region
B11: 729 × TG: 15729 HC (SEQ ID NO: 44) with TG10 LC (SEQ ID NO: 12) (antibody, V domains shown)
VH: B1 VH with V24A, P28T, A33W, E53Q, T98R, V102G, G103R, L104I, S105F, S107Y
VL: B1 VL
modifications: Based on an antibody sequence.; TG10 Light Chain Variable Region
B12: TG10 P108A: TG10 HC P108A (SEQ ID NO: 36) with TG10 LC (SEQ ID NO: 12) (antibody, V domains shown)
VH: B1 VH with A33W, P100A
VL: B1 VL
modifications: Site directed mutation of TG10 HC Variable Region; TG10 Light Chain Variable Region
B13: TG10 E57A: TG10 HC E57A (SEQ ID NO: 37) with TG10 LC (SEQ ID NO: 12) (antibody, V domains shown)
VH: B1 VH with A33W, E53A
VL: B1 VL
modifications: Site directed mutation of TG10 HC Variable Region; TG10 Light Chain Variable Region
B14: TG10 D109A: TG10 HC D109A (SEQ ID NO: 42) with TG10 LC (SEQ ID NO: 12) (antibody, V domains shown)
VH: B1 VH with A33W, D101A
VL: B1 VL
modifications: Site directed mutatation of TG10 HC Variable Region; TG10 Light Chain Variable Region
B15: TG10 D107A: TG10 HC D107A (SEQ ID NO: 41) with TG10 LC (SEQ ID NO: 12) (antibody, V domains shown)
VH: B1 VH with A33W, D99A
VL: B1 VL
modifications: Site directed mutation of TG10 HC Variable Region; TG10 Light Chain Variable Region
B16: TG10 LC Y38A: TG10 HC (SEQ ID NO: 3) with TG10 LC Y38A (SEQ ID NO: 43) (antibody, V domains shown)
VH: B1 VH with A33W
VL: EIVLTQSPGTLSLSPGDRATHSCRASQSVSRSALAWYQQKPGQTPRLFIYGASNRATGIPDRFSGSGSGTYFTLTISRLEPEDFAVYYCQQYDSAPDTFGQGTRLEIKLC
modifications: TG10 Heavy Chain Variable Region; Site directed mutation of TG10 LC Variable Region

Changes are numbered by the printed parent chain. Names and notes keep the numbering of the source.

In the first assay the test system is PNAG conjugates on the array (dPNAG, PNAG and intermediate levels of deacetylation). The experiment in a line: Neoglycoprotein (glycan) microarray binding, 816-component array. The settings on record: ability to bind both dPNAG and PNAG and intermediate levels of deacetylation.
As for B1, the “PNAG Binding on Array” value is “No”. Same read-out and setting: under B2 stands “Yes”; under B3, “Yes”. For B4, the “PNAG Binding on Array” value is listed as “No”. Same read-out and setting: as for B5, the entry is “No”; as for B6, “Yes”. Same read-out and setting: under B7 stands “No”. Same read-out and setting: as for B8, the entry is “Yes”; as for B9, “Yes”. Regarding B10, the “PNAG Binding on Array” value is on record as “Yes”. Still for that read-out and setting: as for B11, the entry is “No”; as for B12, “Yes”. On the same count and under the same terms, as for B13, the entry is “Yes”.

In another assay the test system is PNAG 0 (fully deacetylated glucosamine pentasaccharide conjugate). The experiment in a line: Glycan microarray binding / apparent KD. As to conditions: fully deacetylated PNAG conjugate PNAG 0. The protocol: (§1) Neoglycoprotein (NGP) microarray fabrication was performed as follows. Several NGP microarrays were constructed as previously described. Two large arrays (8 duplicate arrays per slide) composed of 815 and 870 neoglycoproteins, glycoproteins, glycopeptide conjugates, and controls were constructed and used for the experiments in this report. Additionally, a PNAG-focused array (16 duplicates per slide) with 49 array components was fabricated and used to determine apparent KD values. Array component parent stocks were diluted to 125-200 μg/mL into print buffer (1×PBS buffer with 2.5% (v/v) glycerol, 0.0005% (v/v) Triton-X 100, 0.0005 μg/mL soluble print dye 0.05 μg/mL Atto 532 (Sigma 06699). Formulated components were printed in duplicate onto 2D-Epoxy functionalized glass slides (Poly-An #104-00-221) or SuperEpoxy 2 microarray slides (ArrayIt) using an Arrayit NanoPrint LM60 arrayer at 60% humidity. Following the print, slides were scanned in a microarray fluorescence scanner (Innopsys, InnoScan 1100 AL) to validate that array components were successfully deposited onto the slide surface. Binding profiles for a representative set of lectins and antibodies were used as QC for each printed microarray batch. The printed NGP microarrays were stored under vacuum at −20° C.
(§2) Antibody selectivity and apparent KD were determined using a NGP microarray. A pre-assay scan was performed to control for missing features. Selectivity and affinity of most mAbs were measured on the full array. A focused array was used to acquire an apparent KD measurement. A slide module (8 well for full array and 16-well for focused array) was mounted onto each slide and blocking buffer (3% BSA in PBS, pH 7.4) was applied to each well of the array. Blocking was performed overnight at 4° C. mAbs were serial diluted in binding buffer (1% BSA in PBST, pH 7.4). Following the block, wells were washed 4× with wash buffer (PBST, PBS with 0.05% tween-20). Primary mAb incubation was performed for 2.5 hours at 37° C. The wells were washed 5× with wash buffer. A CY3-labeled secondary antibody specific for the Fc portion of human IgG was diluted 500 fold into binding buffer and added to each array well (Jackson ImmunoResearch, 109-165-098). Secondary mAb incubation was performed for 1.5 hours at 37° C. Wells were washed 5× with wash buffer. Slides were removed from the slide module and submerged in wash buffer for 5 minutes. Washed slides were dried by centrifugation @ 1000×g in a centrifuge quipped with a swing bucket rotor. Fluorescent scans were obtained at multiple PMT values to maximize dynamic range. Raw data was analyzed using GenePix 7.0 software as previously described. Selectivity profiles and apparent KD curves were plotted in excel and Graphpad Prism. Apparent Kos were determined using one-site specific binding algorithm in Graphpad Prism.
In the case of B1, the “effect of single point mutation on binding between TG10 and PNAG 0” value was “completely removed binding”. The same measure, in the same setting: under B5 stands “completely removed binding”; under B14, “greatly reduce”; under B15, “completely removed binding”. Still for that read-out and setting: under B16 stands “completely removed binding”; under B13, “greatly reduce”.

Another assay deals with PNAG conjugates on the array (dPNAG, PNAG and intermediate levels of deacetylation). The experiment in a line: Neoglycoprotein (glycan) microarray binding, 816-component array. As to conditions: single point mutations. The protocol: as §1, §2
Consider B1, for which the “function of TG10 variant (binding to PNAG conjugates on the array)” value (“function of TG10 variant” for short) is reported as “functionally dead”. As for B5, the “function of TG10 variant” value is “functionally dead”.

Take B15: the “function of TG10 variant” value was “functionally dead”. B16: the “function of TG10 variant” value was “functionally dead”.
